Reference: US20210380703A1

target: human Fc (human); assay: ELISA, negative control

| Binder | optical density |
| --- | --- |
| 366_B07 (antibody, V domains shown) VH: EVQLLESGGGLVQPGGSLRLSCAASGFTFSDYGMNWVRQAPGKGLEWVSGINYNGGYTSYADSVKGRFTISRDNSKNTLYLQMNSLRAEDTAVYYCARGANWHDTHLDYWGQGTLVTVSS VL: DIQMTQSPSSLSASVGDRVTITCRASQSIVSYLNWYQQKPGKAPKLVIYATTSRASGVPSRFSGSGSGTDFTLTISSLQPEDFATYYCQQSYNSPLTFGGGTKVEIK | 0.215 OD |
| 365_G04 (antibody, V domains shown) VH: EVQLLESGGGLVQPGGSLRLSCAASGFTFDSYSMNWVRQAPGKGLEWVAGINYNGGYTGYADSVKGRFTISRDNSKNTLYLQMNSLRAEDTAVYYCARGANWHDTHLDYWGQGTLVTVSS VL: DIQMTQSPSSLSASVGDRVTITCRASQSIVSYVNWYQQKPGKAPKLVIYAATSLASGVPSRFSGSGSGTDFTLTISSLQPEDFATYYCQQSYDTPLTFGGGTKVEIK | 0.295 OD |
| 365_E12 (antibody, V domains shown) VH: EVQLLESGGGLVQPGGSLRLSCAASGFTFSDYGMNWVRQAPGKGLEWVSNINYNGGYTGYADSVKGRFTISRDNSKNTLYLQMNSLRAEDTAVYYCARGANWHDTALDYWGQGTLVTVSS VL: DIQMTQSPSSLSASVGDRVTITCRASQSILTYLNWYQQKPGKAPKLLIYAATSRASGVPSRFSGSGSGTDFTLTISSLQPEDFATYYCQQSYETPLTFGGGTKVEIK | 0.338 OD |
| 366_B05 (antibody, V domains shown) VH: EVQLLESGGGLVQPGGSLRLSCAASGFTFSDYSMNWVRQAPGKGLEWVSGINYNSGYKSYADSVKGRFTISRDNSKNTLYLQMNSLRAEDTAVYYCARGANWHDTALDYWGQGTLVTVSS VL: DIQMTQSPSSLSASVGDRVTITCRASQSISSYLNWYQQKPGKAPKLVIYAVTSRASGVPSRFSGSGSGTDFTLTISSLQPEDFATYYCQQSYELPLTFGGGTKVEIK | 0.24 OD |
| 366_A08 (antibody, V domains shown) VH: EVQLLESGGGLVQPGGSLRLSCAASGFTFDDYSMNWVRQAPGKGLEWVSGINYNSGYKGYADSVKGRFTISRDNSKNTLYLQMNSLRAEDTAVYYCARGANWHDTHLDYWGQGTLVTVSS VL: DIQMTQSPSSLSASVGDRVTITCRASQSIVSYVNWYQQKPGKAPKLVIYAATSRASGVPSRFSGSGSGTDFTLTISSLQPEDFATYYCQQSYNSPLTFGGGTKVEIK | 0.243 OD |
| 365_F02 (antibody, V domains shown) VH: EVQLLESGGGLVQPGGSLRLSCAASGFTFSSYSMNWVRQAPGKGLEWVSGINYNGGYKGYADSVKGRFTISRDNSKNTLYLQMNSLRAEDTAVYYCARGANWHDTHLDYWGQGTLVTVSS VL: DIQMTQSPSSLSASVGDRVTITCRASQSILTYVNWYQQKPGKAPKLLIYAATSRHSGVPSRFSGSGSGTDFTLTISSLQPEDFATYYCQQSYDTPLTFGGGTKVEIK | 0.326 OD |
| 365_G05 (antibody, V domains shown) VH: EVQLLESGGGLVQPGGSLRLSCAASGFTFSSYGMNWVRQAPGKGLEWVSGINYNGGYKGYADSVKGRFTISRDNSKNTLYLQMNSLRAEDTAVYYCARGANWHDTALDYWGQGTLVTVSS VL: DIQMTQSPSSLSASVGDRVTITCRASQSILSYLNWYQQKPGKAPKLVIYAATSLASGVPSRFSGSGSGTDFTLTISSLQPEDFATYYCQQSYENPLTFGGGTKVEIK | 0.319 OD |
| 365_C05 (antibody, V domains shown) VH: EVQLLESGGGLVQPGGSLRLSCAASGFTFSDYSMNWVRQAPGKGLEWVSGINYNGGYKGYADSVKGRFTISRDNSKNTLYLQMNSLRAEDTAVYYCARGANWHDTHLDYWGQGTLVTVSS VL: DIQMTQSPSSLSASVGDRVTITCRASQSILTYLNWYQQKPGKAPKLLIYAATSRHSGVPSRFSGSGSGTDFTLTISSLQPEDFATYYCQQSYNSPLTFGGGTKVEIK | 0.271 OD |
| 365_F03 (antibody, V domains shown) VH: EVQLLESGGGLVQPGGSLRLSCAASGFTFDSYSMNWVRQAPGKGLEWVSSINYNGGYTSYADSVKGRFTISRDNSKNTLYLQMNSLRAEDTAVYYCARGANWHDTHLDYWGQGTLVTVSS VL: DIQMTQSPSSLSASVGDRVTITCRASQSILSYLNWYQQKPGKAPKLLIYAATSRASGVPSRFSGSGSGTDFTLTISSLQPEDFATYYCQQSYDNPLTFGGGTKVEIK | 0.347 OD |
| 365_G09 (antibody, V domains shown) VH: EVQLLESGGGLVQPGGSLRLSCAASGFTFSSYSMNWVRQAPGKGLEWVSGINYNGGYKSYADSVKGRFTISRDNSKNTLYLQMNSLRAEDTAVYYCARGANWHDTHLDYWGQGTLVTVSS VL: DIQMTQSPSSLSASVGDRVTITCRASQSIITYLNWYQQKPGKAPKLVIYAATSRASGVPSRFSGSGSGTDFTLTISSLQPEDFATYYCQQSYNSPLTFGGGTKVEIK | 0.288 OD |
| 366_A04 (antibody, V domains shown) VH: EVQLLESGGGLVQPGGSLRLSCAASGFTFSSYGMNWVRQAPGKGLEWVAGINYNGGYTSYADSVKGRFTISRDNSKNTLYLQMNSLRAEDTAVYYCARAANWHDTALDYWGQGTLVTVSS VL: DIQMTQSPSSLSASVGDRVTITCRASQSILTYLNWYQQKPGKAPKLVIYAATSLASGVPSRFSGSGSGTDFTLTISSLQPEDFATYYCQQSDDSPLTFGGGTKVEIK | 0.319 OD |
| 365_H07 (antibody, V domains shown) VH: EVQLLESGGGLVQPGGSLRLSCAASGFTFDSYSMNWVRQAPGKGLEWVSGINYNGGYTSYADSVKGRFTISRDNSKNTLYLQMNSLRAEDTAVYYCARGANWHDTHLDYWGQGTLVTVSS VL: DIQMTQSPSSLSASVGDRVTITCRASQSISTYVNWYQQKPGKAPKLLIYAATSRHSGVPSRFSGSGSGTDFTLTISSLQPEDFATYYCQQSYENPLTFGGGTKVEIK | 0.33 OD |

The remaining lines, values ahead:

| optical density | Binder |
| --- | --- |
| 0.25 OD | 376_F09 (antibody, V domains shown) VH: EVQLLESGGGLVQPGGSLRLSCAASGFTFDSYSMHWVRQAPGKGLEWVSSINYNGGYKSYADSVKGRFTISRDNSKNTLYLQMNSLRAEDTAVYYCARAATWHDTHLDYWGQGTLVTVSS VL: DIQMTQSPSSLSASVGDRVTITCRASQSILTYVNWYQQKPGKAPKLLIYAVTSRASGVPSRFSGSGSGTDFTLTISSLQPEDFATYYCQQSYDTPLTFGGGTKVEIK |
| 0.347 OD | 367_A03 (antibody, V domains shown) VH: EVQLLESGGGLVQPGGSLRLSCAASGFTFDSYGMNWVRQAPGKGLEWVAGINYNGGYTSYADSVKGRFTISRDNSKNTLYLQMNSLRAEDTAVYYCARGANWHDTALDYWGQGTLVTVSS VL: DIQMTQSPSSLSASVGDRVTITCRASQSILTYVNWYQQKPGKAPKLLIYATTSRHSGVPSRFSGSGSGTDFTLTISSLQPEDFATYYCQQSYDSPLTFGGGTKVEIK |
| 0.272 OD | 366_E08 (antibody, V domains shown) VH: EVQLLESGGGLVQPGGSLRLSCAASGFTFSDYSMNWVRQAPGKGLEWVSNINYNGGYTSYADSVKGRFTISRDNSKNTLYLQMNSLRAEDTAVYYCARGANWHDTHLDYWGQGTLVTVSS VL: DIQMTQSPSSLSASVGDRVTITCRASQSIVTYLNWYQQKPGKAPKLLIYAATSRHSGVPSRFSGSGSGTDFTLTISSLQPEDFATYYCQQSYSNPLTFGGGTKVEIK |
| 0.374 OD | 366_D01 (antibody, V domains shown) VH: EVQLLESGGGLVQPGGSLRLSCAASGFTFSSYGMHWVRQAPGKGLEWVSSINYNGGYTGYADSVKGRFTISRDNSKNTLYLQMNSLRAEDTAVYYCARAANWHDTHLDYWGQGTLVTVSS VL: DIQMTQSPSSLSASVGDRVTITCRASQSILTYVNWYQQKPGKAPKLLIYAATSRASGVPSRFSGSGSGTDFTLTISSLQPEDFATYYCQQSYENPLTFGGGTKVEIK |
| 0.318 OD | 366_D03 (antibody, V domains shown) VH: EVQLLESGGGLVQPGGSLRLSCAASGFTFDSYGMHWVRQAPGKGLEWVSSINYNGGYTGYADSVKGRFTISRDNSKNTLYLQMNSLRAEDTAVYYCARAANWHDTHLDYWGQGTLVTVSS VL: DIQMTQSPSSLSASVGDRVTITCRASQSILSYVNWYQQKPGKAPKLLIYAATSRASGVPSRFSGSGSGTDFTLTISSLQPEDFATYYCQQSYDLPLTFGGGTKVEIK |
| 0.252 OD | 367_A08 (antibody, V domains shown) VH: EVQLLESGGGLVQPGGSLRLSCAASGFTFDSYGMNWVRQAPGKGLEWVAGINYNGGYTSYADSVKGRFTISRDNSKNTLYLQMNSLRAEDTAVYYCARGANWHDTHLDYWGQGTLVTVSS VL: DIQMTQSPSSLSASVGDRVTITCRASQSILTYLNWYQQKPGKAPKLLIYAVTSRASGVPSRFSGSGSGTDFTLTISSLQPEDFATYYCQQSYDSPLTFGGGTKVEIK |
| 0.315 OD | 367_A10 (antibody, V domains shown) VH: EVQLLESGGGLVQPGGSLRLSCAASGFTFSSYGMNWVRQAPGKGLEWVAGINYNSGYTSYADSVKGRFTISRDNSKNTLYLQMNSLRAEDTAVYYCARGANWHDTHLDYWGQGTLVTVSS VL: DIQMTQSPSSLSASVGDRVTITCRASQSIITYVNWYQQKPGKAPKLLIYAATSLASGVPSRFSGSGSGTDFTLTISSLQPEDFATYYCQQSYDLPLTFGGGTKVEIK |
| 0.378 OD | 367_A06 (antibody, V domains shown) VH: EVQLLESGGGLVQPGGSLRLSCAASGFTFDSYGMNWVRQAPGKGLEWVASINYNGGYKGYADSVKGRFTISRDNSKNTLYLQMNSLRAEDTAVYYCARGANWHDTHLDYWGQGTLVTVSS VL: DIQMTQSPSSLSASVGDRVTITCRASQSILSYVNWYQQKPGKAPKLLIYAATSRHSGVPSRFSGSGSGTDFTLTISSLQPEDFATYYCQQSYDTPLTFGGGTKVEIK |
| 0.39 OD | 367_A12 (antibody, V domains shown) VH: EVQLLESGGGLVQPGGSLRLSCAASGFTFSSYGMNWVRQAPGKGLEWVSGINYNSGYTSYADSVKGRFTISRDNSKNTLYLQMNSLRAEDTAVYYCARGANWHDTHLDYWGQGTLVTVSS VL: DIQMTQSPSSLSASVGDRVTITCRASQSILSYLNWYQQKPGKAPKLLIYAATSLHSGVPSRFSGSGSGTDFTLTISSLQPEDFATYYCQQSYNNPLTFGGGTKVEIK |
| 0.371 OD | 366_F02 (antibody, V domains shown) VH: EVQLLESGGGLVQPGGSLRLSCAASGFTFSSYGMNWVRQAPGKGLEWVSGINYNSGYTGYADSVKGRFTISRDNSKNTLYLQMNSLRAEDTAVYYCARGANWHDTHLDYWGQGTLVTVSS VL: DIQMTQSPSSLSASVGDRVTITCRASQSILTYLNWYQQKPGKAPKLVIYAATSRHSGVPSRFSGSGSGTDFTLTISSLQPEDFATYYCQQSYDNPLTFGGGTKVEIK |
